Results taken from publication PMC12905490, “Identification and functional characterization of two CXCL17 paralogs from zebrafish” (Biochemical Journal, 2026).
One block for each molecule: values may come before it.

Columns and labels:
[1] = target: sLgBiT-Dr-GPR25 (zebrafish (Danio rerio)); experiment: split reporter (BiFC, NanoBiT); NanoBiT-based competition binding: constant 6 × His-SmBiT-Dr-CXCL17-like tracer and varied competitors on living HEK293T cells expressing sLgBiT-Dr-GPR25; serum-free DMEM, 0.1% BSA, 0.01% Tween-20, room temperature ~1 h
[2] = target: T1, sLgBiT-Dr-GPR25 (zebrafish (Danio rerio), UniProt A0AC58GT18 1-377); experiment: split reporter (BiFC, NanoBiT); NanoBiT-based homogeneous saturation binding: varied 6 × His-SmBiT-Dr-CXCL17-like on living HEK293T cells overexpressing sLgBiT-Dr-GPR25, without coexpression of TPST1 and TPST2; serum-free DMEM, 0.1% BSA, 0.01% Tween-20, room temperature ~1 h; non-specific binding with 1.0 μM unlabeled 6 × His-Dr-CXCL17-like; conditions: one partner purified
T1 construct: G protein-coupled receptor 25 (GPR25), zebrafish (Danio rerio); In one experiment it was coexpressed with human TPST1 and TPST2; sulfation of the N-terminal tyrosines is only called potential; The chemotaxis assays used untagged Dr-GPR25 (PB-TRE/Dr-GPR25); also called N-terminally secretory LgBiT-fused Dr-GPR25; zebrafish GPR25; source: HEK293T, transfected (PB-TRE/sLgBiT-Dr-GPR25), Dox-induced, …
T1 sequence (looked up): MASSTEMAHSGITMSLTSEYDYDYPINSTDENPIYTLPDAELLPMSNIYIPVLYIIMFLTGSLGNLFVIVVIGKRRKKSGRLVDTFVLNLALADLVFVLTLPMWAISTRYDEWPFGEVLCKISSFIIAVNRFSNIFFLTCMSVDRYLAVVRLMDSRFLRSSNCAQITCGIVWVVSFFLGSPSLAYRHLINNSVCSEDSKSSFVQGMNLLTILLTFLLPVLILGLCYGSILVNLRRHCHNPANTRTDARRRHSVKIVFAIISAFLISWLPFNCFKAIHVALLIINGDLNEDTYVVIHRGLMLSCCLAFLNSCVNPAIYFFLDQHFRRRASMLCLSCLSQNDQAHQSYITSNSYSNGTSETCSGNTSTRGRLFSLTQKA

[3] = target: T1, sLgBiT-Dr-GPR25; experiment: split reporter (BiFC, NanoBiT); NanoBiT-based homogeneous saturation binding as before, but sLgBiT-Dr-GPR25 coexpressed with human TPST1 and TPST2 in HEK293T cells; serum-free DMEM, 0.1% BSA, 0.01% Tween-20, room temperature ~1 h; conditions: one partner purified
[4] = target: T1, sLgBiT-Dr-GPR25; experiment: split reporter (BiFC, NanoBiT); NanoBiT-based competition binding: constant 6 × His-SmBiT-Dr-CXCL17-like tracer and varied competitors on living HEK293T cells expressing sLgBiT-Dr-GPR25; serum-free DMEM, 0.1% BSA, 0.01% Tween-20, room temperature ~1 h; conditions: one partner purified

Molecule: 6 × His-Dr-CXCL17 (ligand)
IC50 [1]: 380 nM

B2: 6 × His-Dr-CXCL17-like (ligand, zebrafish (Danio rerio), UniProt A0AB13AB19 26-95, looked up)
chain: QRRSMKQSAVCGCKLYPDKGLKCTKRPNPKSRDEYYEILKCICRDTQIFSKSSRKEYLKRCNKFYPSLPL
notes: Dr-CXCL17-like, zebrafish (Danio rerio, Tübingen strain), mature peptide of 70 amino acids (residues 26-95 of the 95-residue precursor; predicted signal peptide of 25 residues left out); also called zebrafish CXCL17-like; A0AB13AB19; not shown: His6, N-terminal, kept
IC50 [4]: ~13 nM

Second part, the molecule after the results:

Kd [2]: 7.5 nM
Kd [3]: 7.1 ± 0.9 nM
B1: 6 × His-SmBiT-Dr-CXCL17-like (ligand, zebrafish (Danio rerio), UniProt A0AB13AB19 26-95, looked up)
chain: B2 chain
notes: Dr-CXCL17-like, zebrafish (Danio rerio, Tübingen strain), mature peptide of 70 amino acids (residues 26-95 of the 95-residue precursor; predicted signal peptide of 25 residues left out); also called tracer; SmBiT-tagged tracer; not shown: His6, N-terminal, kept; SmBiT, N-terminal, kept

IC50 [4]: ~230 nM
B3: 6 × His-Hs-CXCL17 (ligand, human, UniProt Q6UXB2 22-119, looked up)
chain: SSLNPGVARGHRDRGQASRRWLQEGGQECECKDWFLRAPRRKFMTVSGLPKKQCPCDHFKGNVKKTRHQRHHRKPNKHSRACQQFLKQCQLRSFALPL
notes: C-X-C motif chemokine ligand 17 (CXCL17), human; likely the mature peptide with an N-terminal 6 × His tag, as for the zebrafish proteins (surmised); also called Recombinant human CXCL17; source: recombinant
